Patent publication US20130041017A1, “SIRNA-BASED THERAPY OF FIBRODYPLASIA OSSIFICANS PROGRESSIVA (FOP)” (The Trustees of the University of Pennsylvania, published 2013)

Target: T1, ACVR1 Arg206His mutant (R206H; c.617G>A), mutated Activin A type I receptor protein (human)
T1 chain: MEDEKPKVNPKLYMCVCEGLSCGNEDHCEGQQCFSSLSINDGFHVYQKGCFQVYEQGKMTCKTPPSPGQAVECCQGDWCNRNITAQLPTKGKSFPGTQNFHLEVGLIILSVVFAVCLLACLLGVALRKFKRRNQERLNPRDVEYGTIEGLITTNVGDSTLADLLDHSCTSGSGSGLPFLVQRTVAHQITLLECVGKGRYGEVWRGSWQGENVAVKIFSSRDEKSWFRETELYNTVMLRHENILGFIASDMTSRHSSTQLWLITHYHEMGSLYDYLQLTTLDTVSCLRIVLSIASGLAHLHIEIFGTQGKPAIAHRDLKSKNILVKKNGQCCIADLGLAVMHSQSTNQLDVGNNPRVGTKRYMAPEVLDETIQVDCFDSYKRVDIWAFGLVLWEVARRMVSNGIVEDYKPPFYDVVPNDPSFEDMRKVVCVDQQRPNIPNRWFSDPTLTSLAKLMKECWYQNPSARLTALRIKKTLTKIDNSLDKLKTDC
Test: cell-based or functional assay

phosphorylated Smad1/5/8 (pSmad1/5/8) by immunoblotting: ~2 fold
B1: Human recombinant BMP4 (ligand)
chain: SPKHHSQRARKKNKNCRRHSLYVDFSDVGWNDWIVAPPGYQAFYCHGDCPFPLADHLNSTNHAIVQTLVNSVNSSIPKACCVPTELSAISMLYLDEYDKVVLKNYQEMVVEGCGCR
